The record followed here is the domain aggregation screens of Martell et al. (2025).

A short description of this data set: soluble fraction after stress (log2 fold change); higher = more stays soluble; pooled small domains, quantitative proteomics. The conditions noted are these: stress: 50 degC. Summed up: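 Each library was heated to 50°C as a stress step. The libraries, made up of small protein domains, were pooled and analysed at high throughput by quantitative proteomics. The reported value is the base-two logarithm of the fold change in each protein's soluble amount after stress, taken as a measure of aggregation propensity. The higher the value, the more protein stays in solution.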

For “HMSQAVTMLKAGRLLANSKGTGAAVRDLEPGMLLYPTGQKDGTMWEVEDEMGNKGWVNSTSMQLA”, the “soluble fraction (log2)” value is 0.188.

Take “HMSVKTIRKTEFAKRLYSLMLEKNWNQSDLARASGMGRDSVSQYIRANNTPSPQNLKKLAEALGVEPVELY”: the “soluble fraction (log2)” value is -1.3. As for “HMEHIDVSGRAFDVSVSRLKRARRLTMRIDTHKQLVKISAPLHVESSTIRAFLARNQNWLEQQVEKR”, the figure is -0.881; as for “HMDEEGDALDREYEDQIRLGDEAFDAEDWTSAQRAYTAALELRPDERYPKNRLRRLASLQEDV”, 0.0779.

Regarding “HMEIALNDKQILLFSNKLVHEPSFASKYSKVGESYDDFAIRISENLTIPDKVQEYLPYLEKVGFNI”, the “soluble fraction (log2)” value is -0.00852.

Turning to “HMSEPTLESLRAEGAHHYDPARFHYLEVLARRMPGQHAAVQQVLASRLREAVAAYAGRRSLI”, the “soluble fraction (log2)” value is -0.126. The result for “HMHNISQTGRRIAGMTQERWAEALDISVESVRLYESGRGMPSDDVATRMVEVSGAPVLGYWH” reads -0.407. As for “HMDPIATLTPREREVLSLMAEGRSNGAIAAALVVGDGAVEKHVSNIFQKLELTPAEGDHRRVLAVLRWLE”, the figure is -0.901; as for “HMQLVPGIGRLSARELEVFTLIGRGLGTSEIGKKLGVSAYTVQTHRNHIKEKLNLPNAAAITYWAIQWAHG”, -2.14; as for “HMEQSLNTYSIRTVKESLFLAETKNLNKIEKLVEGIEGRLTLSEALVLFSDKLNAMSVLSHVNANT”, -0.148. As for “HMDTVSYSTLLRDIDAKEIKQLDLVPGRREVRVQYNDGRRVTVPVFANDNQILRAAESSGTPLTVV”, the figure is 0.183; as for “HMWAVDFVLLDKDDQRIGNAVAYRDDRTKGMDEEVYRTVPEEELYASTGIQKQIFNSIYQLMAWKK”, 0.0151. As for “HMTFAPTAIPSLTRPMEELMSWSFTPNEAFILSRINGLWDVRSIAKISPFPEGEVLRVFEKLHDGGLIRW”, the “soluble fraction (log2)” value was -2.92. For “HMGMTRPLFVTDPGLVRIGLVSPIFEKLGSGKLSPQLFDQVKEDPPEQTVFDGVEFARETGIDGVIGFG”, the “soluble fraction (log2)” value was -0.124. As for “HMGGFSVTAEAFDGTPEVGKTVGFTAGSTKIKVEDTKGDATFGTILEKETVGFGEGKYTYFYIGL”, the figure is -0.223; as for “HMKISDMIETNLKFLRGKHSISQAELAESLGIPRTTLSAYERGFVEPNIELMLKMAKYFNVSLDDLIAYN”, -1.88; as for “HMPEVTMSYSARNQVVSFSKATQYEIVDEFGTVVLRGVGNQATLRYLSRGDYFVNFGAGTEVLKK”, 0.000609. The result for “HMAQVSDTGELEGVVDGVLAANAKSVADFQAGKENAFQYLIGQVMKETKGKANPEVVATLLRTKLS” reads -0.382; that for “HMFAVPAPEVDDILSEKKVDVLLLGPQVRYLLEQFTEKLKDKNIPIGVIPMVDYGMMNGSKVLALAEELIG”, -0.0132. Regarding “HMHMHTADDFKQLAKHTSNGRLRTRYLALYHFKKGETRTQIAAYLGVARGSVNTWVSNYLAYGLEGLQS”, the “soluble fraction (log2)” value was -2.56. As for “HMDAVSYTQFMQDAKAGRIKKVIVHQSGILDVTTTEGRRFNLTSPGDLWMVGDLVKDGVDVVGAP”, the “soluble fraction (log2)” value is -0.0657.

In the case of “HMLGKNEAKEYKVAYGDIGKMPALIMGLVPLPKPPVVDERLRTLYVTATPEQHREIEAIMNRI”, the “soluble fraction (log2)” value was 0.156. With “HMRAAKSEDTRTRLIEGGMALFGQKGYNATGIKDITDAAGVPKGSFYNYFASKEDFGAEIIHSY”, the “soluble fraction (log2)” value was found to be 0.122. The result for “HMVVPRSFKYEVLAHGGWAGNAQRYQTKEEALHAGLALSRRWTAVEDYRAVPSDDLPNQPAL” reads -0.259; that for “HMDGVPPAGSRIRLTVSTQVGDKEFEGTLVPPAGVDLLTLKLANGYNLSHSIADVREVVLIEEGLQGEEP”, -0.0515. Regarding “HMSKEDDSLVVTFRRMLLEEVDLHELSRIDANQRRARLERVIAHLVSREGVILSASERNQLVRRVVDEAV”, the “soluble fraction (log2)” value was -0.529. The result for “HMSVSVEEDADGRVWVYYQDQKMDITDLFDENGVYGFNLEKGDRTVYVEVTKNADGTYSFTQTD” reads -0.0127; that for “HMDTSISHLVGRTGEAVTDLRPAGTVMIDGELYDARATEGFIEKGEIVKAIKYQYGQLNVRRVSK”, 0.0877. With “HMKLINEDLNNEIVFEENKVNLLVIENKKKFVQFIQEIIKQINGDEGKFSLFDINTELKIHDKIDII”, the “soluble fraction (log2)” value was 0.185.

For the sequence “HMNIKITKSKNSEHYSIIYNTKINGKRTSKIYENIGNFEKLKLRAGEQEPIEWLKNYVSELNKKQKEDT”, the “soluble fraction (log2)” value is 0.109.

Consider “HMQQPVVVQQNQTVRVVTGGPGFQVANEGRALNNGLAGQVVQVRLGNGQIISGIARAGGIVEIL”, for which the “soluble fraction (log2)” value worked out at 0.0705. The result for “HMDSIDVQQKKLLTDIELGNIEGIKLFLKRHNNTINFLTIKGFHPLVYAVRNNNMEIVNLFLTT” reads 0.172; that for “HMPIDIEPVLQWIRDNSIDGIGPARSMYHSAAAAAGLPSYSSLQLRKWTWPLLLDAAGVQRR”, -0.433; that for “HMLFQGDTPAENIILEILSKNGTTASDSIIKQSGLSVSDFNQAATMLEIKGLISNNGGNIWSL”, 0.0636. The result for “HMNHSITLTERKNLLITGVKKIENFDKEEFLIETTMGFLVVKGDGLELIKLDTISGNVSIKGIVNGFTYID” reads 0.223. As to “HMAIPTTDSDKATDAQIKQIKLLGDIHPNLKLDAWLERNHVTWETLTREQAGNMMKAIKNKYGD”, the “soluble fraction (log2)” value was -0.00881. As for “HMVISNDEFEDYLNRATEQLVSELSSGKNPRDAVHDLALTFADQHNKSYDAYQRMADSLEARMHTL”, the figure is 0.0885; as for “HMKITFNPVSSGRLDIILAEKTGYTRSYVKQLVEKQAVTINGEAAKKSGQNVKAGDEIALDEP”, 0.0957. The result for “HMYSIKEFSFEVTTPGQRLDLFLSEELIGQTRSSIQNLILKKYVTVNGQVSKASYKVKTGEFISVKIPV” reads -3.16; that for “HMKYYIYQGLGDSGELTKIAEVTDVKTYTATGLEANTKYRFAVSAYNGLRESSKSNIITVTT”, 0.0324; that for “HMQKTVLAASVYERMKERIMDQYYPPGERLNIDALAIDLAVSPTPIREALARLAAERLITFEAYKGYRVSP”, -1.87. As for “HMLPDVSITGHIFIRSGSRLNRIFVGESTYHVGDMLDGKWLIESINSDSLELRSGTQTTELPL”, the figure is -2.58. For the sequence “HMAQVRSTVERRENGTYTVELNLNDDVDNVMRLQLMVATKEMAEDLAQRFQKNPEQVYSQLVTALYG”, the “soluble fraction (log2)” value stood at 0.0631. Consider “HMEAYLPVTVVSDGKILTGNLEKAGKNEKWLENVLSELKTDVKNTLLLTVDPKDGLIFYPKG”, for which the “soluble fraction (log2)” value was found to be 0.0932.

“HMANLLNLREIPVANIRPELTMFLIPGENITQAFQTIRDQVVFTNKRLIVANVQGLTGKKVSYTSYPY”: the “soluble fraction (log2)” value is -0.374. For the sequence “HMGGPRDVPYSTFLIEVEKGQVAEVTIQDHKITGTYKNSNEPFITNAPDDPDLVSRLIKYGVGVQAKPPE”, the “soluble fraction (log2)” value was -0.0153. In the case of “HMSGAKLLAPVTGTLLRYTVAEGTKVSEGQTVIMLESMKMELEINAHKAGVIHFTAAAGAQVAEGDSLAEI”, the “soluble fraction (log2)” value was -0.52. As for “HMNAIYKFVLGMIGKRSGVVTTLPSKKQVEFQANMLAEKFMQNGIDPNALKSPEQVKNVLANIDQ”, the figure is -0.737; as for “HMSGKMTVPNVVGKTETEAKSALSAKGFTNVRTETVDSTEAAGTVVKQSLDADSVQDPKTEIVLSVSNG”, 0.608; as for “HMQVITEPFQEKYREFINMSTVTQRLEERETLSFTAQTVEGRWLTIIIVPQGYDKTGKLSTVLVANR”, 0.179. The result for “HMLAPLAEMRGDTLDRLEKAVLELFSSRDFHEVSLQDVARRANVSLQTIYKYFGSKEALVYTMLDTLLGR” reads -0.661. As for “HMLDTELEANLRSQRDQKLVEELDPIVTNPLRWAELTSDKQTEWTQYRTDLLNVPQQSGFPTNVTWPEKP”, the figure is 0.212; as for “HMVVNERIKKLRRSLDLTQQEFADRIGVKRNTIANYEIGRNEPIDSVLELIVREFGVSKQWLLDGTGEMF”, -0.55; as for “HMAARLMRALIPYAQGGLLAKLHEDGQVLSEEYTGEGIEVKALADEQLFGRLTVQLGEQAVSWQD”, 0.16. With “HMETKKEIIEAINELEEKYRNAIYLTSIEKLSYEETSKILGQSLSNTKNLIHRGKQQLRKILIKK”, the “soluble fraction (log2)” value was -0.214.

Regarding “HMGEDSEPVQVPDVTGQPLWEARRTLSSMGLKVLDDGGSGSVTAQMPSAGATLRNGGQMMLYTYDEALPE”, the “soluble fraction (log2)” value came to 0.133.

On to “HMVGVDMTVKEEVGKEGVTFTDLRPAGKVEIGNDIYDAVSNTGAFIQKGEKVKIIKYQAGQVYVEKLV”, for which the “soluble fraction (log2)” value is -0.121. For “HMAQTEIIRVTKDIKKGDAITADKFEKVKVGAYNLPGNVVKNADELKGKFAAADLVRGDYILTSKLTDNP”, the “soluble fraction (log2)” value was 0.146. “HMSEYEYALHEFGITKKQSQRIFDRLSIADLEERINAIQTTLKQRSDIDNPAAYAWTVLNAE”: the “soluble fraction (log2)” value was -0.207.

Consider “HMGIAERKEKQKLEIRNAILEASRKLIVEEGFEKVTMRKIADLIEYSPTTVYLYFKDKNEILFHLHQ”, for which the “soluble fraction (log2)” value was -1.37. The result for “HMQISDESSIAKIADEVISEFPSQVSEFRSGKEKVLQFLIGQVMKKTKGKANPQITAKILREKLS” reads 0.119. On to “HMALDSQEVGYNIEARGARPVVAQLGKAGQFSAVENSIRLGDDNWIALAPKLAGGGNAGFTAGIKSALS”, for which the “soluble fraction (log2)” value was 0.0371. The result for “HMIPDGKWKEDPISDGQKNFINSLIEQAIDAGQDELGAEAKKYLASGEATKGNASAMIDKLKSAL” reads 0.392; that for “HMKTTKRERARAKLIQLLENEDRPAKEIYAGLGDIGVGSRTVEKVKKELQVTTYRSGGSWYWSLPKP”, -0.169.

On to “HMISDISEIEAIIVEVLKVFPNQLQEYLDGKEKILSFFVGQVMQRTKGRANPSLVNEILKEKIKN”, for which the “soluble fraction (log2)” value came out at 0.0377. Regarding “HMIFELDSDRASAGNTIGKLVSKWNNTEVASVQFVSGDDTSNKDNASIYLNTRSGGSGNLVRLRITK”, the “soluble fraction (log2)” value turned out to be 0.168. For the sequence “HMRTYYEILGVSKNASLHEIQKAYRELALKYHPKNNSDPTAEEKFTQINEAYTHLSDAARRRSYDDL”, the “soluble fraction (log2)” value is 0.222. With “HMGGVSTDKPLNWDADGTSKLTQEQIDYLRSTYDLSDMSKQDYYDLMADLTNMNAISIKDVISQYVK”, the “soluble fraction (log2)” value was -0.0536. As for “HMEKINLLVENNDNYRLDKIIALNMEELSRTQIQEMIGQGLVLVNGKVEKASYKTKLNDQIEITIED”, the figure is 0.0401.
